# Assays:
# Type in all cases: biochemical
# [1] = LysoPLA activity assay (release of fatty acid from 14C-LysoPC)
# Description: (§1) The protein concentration was determined by the Bio-Rad protein assay, using bovine serum albumin (BSA) as standard. Protein purity was examined using 12% SDS-PAGE and Coomassie blue staining. LysoPLA activity was measured at 40° C. in the assay buier containing LysoPC, 100 mM Tris-HCl (pH 8.0) and 10 mM LMe. Cold 1-palmitoyl-sn-glycero-3-phosphorylcholine (125 μM, unless indicated otherwise) was mixed with 1-[14 C]palmitoyl-sn-glycero-3-phosphorylcholine (100,000 cpm) in a total volume of 0.5 ml. The assay was initiated by adding an aliquot of enzyme solution to the substrate mixture and incubating for the desired time. The released fatty acid was extracted by the modified Dole method and then quantified by scintillation counting. The PLA2 activity assay was carried out, using various ^14C-labeled phospholipid substrates under various conditions as given in the text. The rat brain iPLA2 was purified as described elsewhere (H. C. Yang et al., manuscript in preparation incorporated herein). Human recombinant cPLA2 was a gift from Drs. J. D. Sharp and R. M. Kramer at Lilly Laboratories. 1-[^14C]Palmitoyl-sn-glycero-3-phosphorylcholine and 1-palmitoyl-2-[1-^14C]palmitoyl-sn-glycerol-3-phosphorylcholine were purchased from Amersham. 1-Palmitoyl-2-[1-^14C]arachidonoyl-sn-glycerol-3-phosphorylcholine was purchased from DuPont-NEN. All unlabeled phospholipids were purchased from Avanti Polar Lipids. Triton X-100 (TX-100) and PIP2 were obtained from CalBiochem.
# To investigate the catalytic properties of the hLy-soPLA, we first determined the specific activity of hLysoPLA as a function of substrate (1-palmitoyl LysoPC) concentration. […] There seems to be some cooperativity, since the data fit to the Hill equation (solid line in FIG. 3) with n=1.53 ? 0.08, kcat=1.34 ? 0.04 μmol/min/mg, and substrate at half-maximal saturation is 12.7±0.9 μM.
# TX-100 is often used in the purification and stabilization of membrane-associated proteins. In addition, it is used to change the surface concentration of the substrate in the mixed-micelle assay for mechanistic studies. To determine the dependence of the enzyme activity on the substrate surface concentration, we measured the hLysoPLA activity under two conditions:
# (1) the bulk LysoPC concentration (1.125 mM) was kept constant and the TX-100 concentration was varied (FIG. 4A);
# (2) the bulk TX-100 concentration (1 mM) was kept constant and the LysoPC concentration was varied (FIG. 4B).
# In addition, we have carried out detailed kinetic measurements and analysis to test the surface dilution kinetic model and results are shown in FIG. 4° C. The experimental data were fitted globally to Eq. 1 derived from the model in which hLysoPLA follows the two-step binding kinetics (Scheme 1). That is, hLysoPLA (E) binds first to the mixed-micellar surface (S) and then to the LysoPC substrate (A) presented on the surface.
# [formula] [formula] Here, [LysoPC+TX-100] is the total molar concentration in the bulk solution, and {LysoPC®} is the molar fraction of the substrate on the mixed-micellar surface. Calculation of the amount of TX-100 in the micelle takes into account the amount of monomeric detergent in the solution, assuming the critical micelle concentration of TX-100 is 0.25 mM. The fitting parameter Ks represents the dissociation constant (k31/k1) for the mixed-micellar surface, Km represents the apparent Michaelis constant (=(k3+ k32)/k2) on the surface, and Vmax is the catalytic turnover rate.
# [2] = PLA2 activity assay toward PAPC; conditions: for Activity: 100 mM Hepes, pH 7.5, 80 μM Ca2+, 2 mM DTT, 0.1 mg/ml BSA
# Description: as §1
# (§2) When we first purified the mouse LysoPLA from P388D1 cells, no other enzymatic activities (PLA1, PLA2, acyltransferase, transacylase and esterase) were found. Therefore, it appears to be a LysoPL-specific LysoPLA. Similar results were obtained for the rat LysoPLA and the relative rates towards different LysoPL substrates were reported [Sugimoto et al., (1996) J. Biol. Chem. 271, 7705-11]. However, a recently sequenced rabbit enzyme that shares high sequence homology (approx. 97%) to the rat/mouse LysoPLA was reported to have both PLA2 and LysoPLA activities [Portilla, et al., […] J. Am. Soc.Nephrol. 9, 1178-86]. The specific activities, however, were only 10 nmol/min/mg for PLA2 activity and 20 nmol/min/mg for LysoPLA activity. The PLA2 activity was also reported to be selective for PlsCho substrate with arachidonic acid at the sn2 position. To determine whether hLysoPLA also expresses PLA2 activity, we have explored its ability to hydrolyze arachidonic acid labeled PlsCho as well as other phospholipid substrates under a variety of conditions.
# [3] = PLA2 activity assay toward plasmenylcholine
# Description: as §1
# The sn-2 labeled PlsCho (plasmenylcholine or 1-O— (Z)-1P-alkenyl-2-arachidonoyl-sn-glycero-3-phosphocholine) was synthesized as follows. A total of 4 μmol [1-14C]arachidonic acid (from NEN, with specific activity […]) was diluted 10 times with cold arachidonic acid in 250 μl distilled methylene chloride (Fisher Scientific). To this 0.04 mmol p(N,N-dimethyl)amino pyridine (Aldrich) and 0.08 mmol 1,3-dicyclohexyl carbodiimide (Aldrich) were added to yield the arachidonoyl anhydride upon 1 h of stirring. Lysoplasmenylcholine (0.06 mmol, from Serdary) dissolved in 200 μl methylene chloride and 50 μl pyridine (Fisher Scienticc) was added to the arachidonoyl anhydride solution with 0.03 μmol dimethylaminopyridine and left stirring for 8 h. The reaction progress was monitored by thin layer chromatography (Merck) using a mobile phase of chloroform:methanol:triethyl amine:water (65:30:1.5:3.5), and retardation factors were 0.6 and 0.2 for PlsCho and LysoPlsCho, respectively. The separation of the product was carried out by preparative layer chromatography (Merck) in the above mobile system. The reaction yielded a total of 3.6 mg (7.7 μmol) of radiolabeled PlsCho (specific activity 0.18 μCi/μmol) by quantitative phosphate analysis.
# as §2
# [4] = PLA2 activity assay toward DPPC; conditions: for Activity: 100 mM Hepes
# Description: as §1, §2
# [5] = Hill equation fit, pure LysoPC (FIG. 3)
# [6] = global fit to surface dilution model, LysoPC/TX-100 mixed micelles
molecule,measurement,setting,value
"hLysoPLA: recombinant human brain lysophospholipase, single 25 kDa polypeptide of 230 amino acids (SEQ ID NO: 2), catalytic triad Ser-119, Asp-174, His-208 (protein, listed as Homo sapiens) MCGNNMSTPLPAIVPAARKATAAVIFLHGLGDTGHGWAEAFAGIRSSHIKYICPHAPVRPVTLNMNVAMPSWFDIIGLSPDSQEDESGIKQAAENIKALIDQEVKNGIPSNRIILGGFSQGGALSLYTALTTQQKLAGVTALSCWLPLRASLPQGPIGGANRDISILQCHGDCDPLVPLMFGSLTVEKLKTLVNPANVTFKTYEGMMHSSCQQEMMDVKQFIDKLLPPID",Hill coefficient n,"[1]; Hill equation fit, activity vs 1-palmitoyl LysoPC concentration, 40° C. (FIG. 3)",1.53
same,kcat,[1]; [5],1.34 µmol/min/mg
same,substrate at half-maximal saturation,[1]; [5],12.7 ± 0.9 µM
same,Activity,"[1]; LysoPC micelles (125 μM), 100 mM Tris, pH 8.0, 10 mM βMe",1.13 ± 0.03 µmol/min/mg
same,kcat,"[1]; Michaelis-Menten fit, LysoPC 1.125 mM constant, TX-100 varied (FIG. 4A)",1.6 µmol/min/mg
same,kcat,"[1]; Michaelis-Menten fit, TX-100 1 mM constant, LysoPC varied (FIG. 4B)",1.7 µmol/min/mg
same,Km (apparent Michaelis constant on the surface),[1]; [6],12.2±0.9 mol %
same,Ks (dissociation constant for the mixed-micellar surface),[1]; [6],66 ± 7 µM
same,Vmax,"[1]; global fit to surface dilution model, LysoPC/TX-100 mixed micelles (FIG. 4C)",1.37 ± 0.05 µmol/min/mg
same,specific activity toward palmitoyl LysoPC,"[1]; purified recombinant enzyme, His-Tag removed",about 1.3 μmol/min/mg
same,PLA2 activity toward phosphatidylcholine substrates (in words),[2]; PAPC substrates,no PLA2 activity was found
same,Activity,[2]; PAPC/PIP2/TX-100 mixed micelles (97 μM:3 μM:400 μM),<0.0001 µmol/min/mg
same,Activity,[2]; PAPC/TX-100 mixed micelles (100 μM:400 μM),<0.0001 µmol/min/mg
same,Activity,"[3]; PisCho sonicated vesicles (100 μM), 100 mM Tris, pH 8.0, 4 mM EGTA, 10 mM βMe",0.0009 ± 0.0003 µmol/min/mg
same,Activity,"[3]; PisCho sonicated vesicles (100 μM), 100 mM Tris, pH 8.0, 150 mM NaCl, 3 mM MgCl2, 10 mM βMe",0.0006 ± 0.0002 µmol/min/mg
same,Activity,"[3]; PisCho/TX-100 mixed micelles (100 μM:600 μM), 100 mM Hepes, pH 7.5, 10 mM βMe",0.0024 ± 0.0004 µmol/min/mg
same,activity toward PlsCho substrate labeled with [14C]arachidonic acid (in words),[3]; mixed micelles or vesicles,did not show any significant activity
same,PLA2 activity toward phosphatidylcholine substrates (in words),[4]; DPPC substrates,no PLA2 activity was found
same,Activity,"[4]; DPPC/POPS sonicated vesicles (67 μM:33 μM), pH 7.5, 5 mM EDTA or Ca2+, 1 mg/ml BSA",<0.0001 µmol/min/mg
same,Activity,"[4]; DPPC/TX-100 mixed micelles (100 μM:400 μM), pH 7.5, 2 mM DTT, 5 mM EDTA",<0.0001 µmol/min/mg
